Our source for the protein stability index values is the supplement of paper PMC9732359.

This data set in a line: protein stability index of a GFP-peptide fusion (yeast GPS) (PSI 1-4); higher = more stable; sorted into four equal gates, so the index is relative within each strain. An outline of the steps: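 Plasmids isolated from each sorting gate were PCR-amplified and Illumina-sequenced, and barcodes assigned the reads to strains. The gates, four of equal size, were set by GFP/Cherry fluorescence ratio on mid-log cultures in leucine-free medium. These cultures were yeast carrying a pooled library of tiled 17-residue yeast protein peptides fused downstream of GFP on a plasmid that also expresses Cherry. The protein stability index is the sum of every gate's read frequency times its gate number.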

± gives the uncertainty stated by the source.

For the sequence AIIVAGVQSNGDQFLRY [PRE4], the protein stability index is, setting by setting: (doa10∆) 2.74 ± 0.095; (pdr5∆) 2.83 ± 0.073; (san1∆) 2.4 ± 0.13; (ubr1∆) 2.28 ± 0.061.

As to KQVLLRLNPYAKVFAAE [RPL4A], the protein stability index runs as follows: (doa10∆) 2.12 ± 0.067; (pdr5∆) 2.6 ± 0.11; (ubr1∆) 2.42 ± 0.074.

On to VKEESQPDENTKEMDEV [SWI3], for which the protein stability index runs as follows: (doa10∆) 3.3 ± 0.19; (pdr5∆) 2.81 ± 0.24; (san1∆) 3.07 ± 0.17; (ubr1∆) 3.03 ± 0.11.

In the case of TCRKHTQHKVTQYKAGK [RPL42A], the protein stability index reads like this: (doa10∆) 3.09 ± 0.14; (pdr5∆) 2.85 ± 0.12; (san1∆) 2.62 ± 0.07; (ubr1∆) 2.91 ± 0.088.

With SGNNSKKRKNKSSGSSM [ROX3], the protein stability index came to 2.65 ± 0.14 (doa10∆), 2.94 ± 0.075 (pdr5∆), 2.91 ± 0.12 (san1∆) and 3.17 ± 0.068 (ubr1∆).

KKVVKKAFEERHQAGKN [RPL27A] returned a protein stability index (pdr5∆) of 3.83 ± 0.22.

For TLQDIGFYQIKKIVDSK [YMR129W/POM152], the protein stability index was determined as 2.64 ± 0.095 (doa10∆), 2.68 ± 0.1 (pdr5∆), 2.89 ± 0.17 (san1∆) and 2.97 ± 0.12 (ubr1∆).

With NLLESITKLLEINLSKI [YCS4], the protein stability index is, setting by setting: (doa10∆) 2.73 ± 0.057; (pdr5∆) 2.55 ± 0.043; (san1∆) 2.94 ± 0.036; (ubr1∆) 2.77 ± 0.034.

In the case of MAKKEGTPKTDSFIFDG [MED4], the protein stability index (doa10∆) was 3.43 ± 0.13, the protein stability index (pdr5∆) came to 3.22 ± 0.15, the protein stability index (san1∆) is 2.94 ± 0.17 and the protein stability index (ubr1∆) was found to be 3.28 ± 0.092.

As for FQKETNMKVTILHGSKS [PRP28], the protein stability index is, setting by setting: (pdr5∆) 3.38 ± 0.29; (san1∆) 3.21 ± 0.093; (ubr1∆) 3.18 ± 0.21.

For the sequence EYALEAVKRGTCAVGVK [PRE6], the protein stability index (doa10∆) is 1.93 ± 0.08, the protein stability index (pdr5∆) is 2.53 ± 0.094, the protein stability index (san1∆) is 2.21 ± 0.13 and the protein stability index (ubr1∆) worked out at 2.92 ± 0.084.

SDDIISQVDPITLFVLV [FAS2]: the protein stability index came to 1.19 ± 0.045 (doa10∆), 1.38 ± 0.068 (pdr5∆), 1.33 ± 0.17 (san1∆) and 1.23 ± 0.064 (ubr1∆).

As to TEVSRKSMKYVKKILPL [ECM29], the protein stability index was found to be 2.34 ± 0.28 (doa10∆), 1.5 ± 0.24 (pdr5∆) and 1.18 ± 0.16 (ubr1∆).

On to PNSNKTHTEQNNPPKPQ [SNF2], for which the protein stability index runs as follows: (doa10∆) 2.78 ± 0.056; (pdr5∆) 3.07 ± 0.083; (san1∆) 3.06 ± 0.069; (ubr1∆) 3.06 ± 0.052.

FGPKKENRKKDESDSEN [YLR335W/NUP2] yielded a protein stability index (doa10∆) of 3.04 ± 0.14, a protein stability index (pdr5∆) of 3.19 ± 0.086, a protein stability index (san1∆) of 2.62 ± 0.079 and a protein stability index (ubr1∆) of 3.42 ± 0.091.

In turn, SEISSLKGKINNEMKSL [SMC1] showed a protein stability index (doa10∆) of 3.09 ± 0.28, a protein stability index (san1∆) of 2.65 ± 0.27 and a protein stability index (ubr1∆) of 3.18 ± 0.18.

Regarding DGTEYVLSSVREPDFWV [MED6], the protein stability index (doa10∆) was 3.49 ± 0.13 and the protein stability index (ubr1∆) turned out to be 2.67 ± 0.12.

For PHATATEKEPVPAVVDD [SNF6], the protein stability index (doa10∆) was 3.24 ± 0.11, the protein stability index (pdr5∆) is 3.08 ± 0.068, the protein stability index (san1∆) turned out to be 2.82 ± 0.14 and the protein stability index (ubr1∆) amounted to 3.18 ± 0.087.

Sequence PFNQGSKQDVEALIEFI [FAS2] yielded a protein stability index (doa10∆) of 3.08 ± 0.073, a protein stability index (pdr5∆) of 3.15 ± 0.076, a protein stability index (san1∆) of 3.01 ± 0.079 and a protein stability index (ubr1∆) of 3.08 ± 0.061.

For the sequence IKNISNRVGLTLDNIDD [ARP9], the protein stability index runs as follows: (doa10∆) 2.65 ± 0.24; (pdr5∆) 3.03 ± 0.11; (san1∆) 3.16 ± 0.091; (ubr1∆) 3.32 ± 0.073.

Consider KLNTFENDLLQEFDSEL [SMC3], for which the protein stability index (doa10∆) came to 3.22 ± 0.13, the protein stability index (pdr5∆) worked out at 3.3 ± 0.11, the protein stability index (san1∆) came to 3.03 ± 0.1 and the protein stability index (ubr1∆) was 2.78 ± 0.1.

As to NFLIKLSELSPGIMLRQ [YCS4], the protein stability index runs as follows: (doa10∆) 2.77 ± 0.093; (pdr5∆) 2.98 ± 0.1; (san1∆) 3.1 ± 0.094; (ubr1∆) 2.95 ± 0.093.

Sequence DKKEMTIYNNIREGQNQ [SIR3] had a protein stability index (doa10∆) of 3.21 ± 0.056, a protein stability index (pdr5∆) of 3.37 ± 0.07, a protein stability index (san1∆) of 3.02 ± 0.041 and a protein stability index (ubr1∆) of 3.27 ± 0.034.

For the sequence RMHLAPASKQGYLITPP [SSN2], the protein stability index was determined as 1.36 ± 0.25 (doa10∆), 1.45 ± 0.24 (pdr5∆) and 1.36 ± 0.13 (ubr1∆).

For YVKAVSDKAQLNVVMKN [SMC4], the protein stability index by setting is: (doa10∆) 2.1 ± 0.074; (pdr5∆) 2.07 ± 0.063; (san1∆) 1.6 ± 0.11; (ubr1∆) 2.19 ± 0.053.

For KRINFEKIKDIHNTKLP [POP1], the protein stability index is, setting by setting: (doa10∆) 2.42 ± 0.17; (pdr5∆) 3.06 ± 0.13; (san1∆) 2.87 ± 0.28; (ubr1∆) 2.54 ± 0.076.

VSPNDNNSANNNAHSSD [YMR153W/NUP53]: the protein stability index reads like this: (doa10∆) 2.91 ± 0.05; (pdr5∆) 2.84 ± 0.06; (san1∆) 2.75 ± 0.053; (ubr1∆) 2.56 ± 0.037.

In the case of SQLDLFLRTMKLTSEET [GRR1], the protein stability index reads like this: (doa10∆) 2.77 ± 0.055; (pdr5∆) 2.7 ± 0.052; (san1∆) 3 ± 0.06; (ubr1∆) 3.09 ± 0.043.

As for LRRLEILVPDLYHLVIM [ECM29], the protein stability index (doa10∆) was determined as 1.59 ± 0.054, the protein stability index (pdr5∆) is 1.54 ± 0.036, the protein stability index (san1∆) was 1.46 ± 0.065 and the protein stability index (ubr1∆) turned out to be 1.61 ± 0.032.

On to GQQKIILSKKWGFTNLD [RPL10], for which the protein stability index (doa10∆) came to 2.68 ± 0.22 and the protein stability index (ubr1∆) was found to be 2.29 ± 0.21.

QGRFRGNLSGKRVDFSG [RPO31]: the protein stability index was 3.36 ± 0.099 (doa10∆), 2.12 ± 0.11 (pdr5∆), 2.76 ± 0.1 (san1∆) and 2.56 ± 0.12 (ubr1∆).

For the sequence IEDPNLSSNITFDGKPT [YMR153W/NUP53], the protein stability index was 3.02 ± 0.069 (doa10∆), 3.06 ± 0.056 (pdr5∆), 3.12 ± 0.043 (san1∆) and 3.17 ± 0.05 (ubr1∆).

Take VKYMPEQKITEIEDGQD [RPO21]: the protein stability index (doa10∆) stood at 3.19 ± 0.12, the protein stability index (pdr5∆) worked out at 3.12 ± 0.099, the protein stability index (san1∆) stood at 2.98 ± 0.098 and the protein stability index (ubr1∆) worked out at 3.19 ± 0.069.

As to IAAKLINSGLYSVLLES [YML103C/NUP188], the protein stability index reads like this: (doa10∆) 2.54 ± 0.099; (pdr5∆) 2.08 ± 0.099; (san1∆) 2.7 ± 0.076; (ubr1∆) 2.67 ± 0.095.

VWGSETVASSKVGYTLP [RPL4A]: the protein stability index was found to be 3.03 ± 0.059 (doa10∆), 3.15 ± 0.049 (pdr5∆), 3.14 ± 0.034 (san1∆) and 3.156 ± 0.031 (ubr1∆).

Turning to VKIRATGGTRTKTPGPG [RPS14A], the protein stability index by setting is: (doa10∆) 3.21 ± 0.25; (pdr5∆) 3.08 ± 0.16; (san1∆) 2.72 ± 0.14; (ubr1∆) 3.33 ± 0.21.

As for LKRYCCRRMILTHVDLI [RPB10], the protein stability index came out at 1.54 ± 0.11 (pdr5∆) and 1.57 ± 0.12 (ubr1∆).

Regarding DQYLWYEADQRKLFPNW [PRP8], the protein stability index (ubr1∆) amounted to 3.13 ± 0.19.

With FGKTTANLPANSSTSPA [YLR335W/NUP2], the protein stability index reads like this: (doa10∆) 3.01 ± 0.047; (pdr5∆) 3.14 ± 0.058; (san1∆) 2.96 ± 0.045; (ubr1∆) 3.12 ± 0.035.
